# Positions count from the first letter of the chain named. In names and notes the source's numbering stands.
# B1: Alcaligenes faecalis Penicillin G acylase, wild type (α subunit SEQ ID NO:27, β subunit SEQ ID NO:32) (Alcaligenes faecalis) (protein)
# chain 1: QVQSVEVMRDSYGVPHVFADSHYGLYYGYGYAVAQDRLFQMDMARRSFVGTTAAVLGPGEQDAYVKYDMQVRQNFTPASIQRQIAALSKDERDIFRGYADGYNAYLEQVRRRPELLPKEYVDFDFQPEPLTDFDVVMIWVGSMANRFSDTNLEVTALAMRQSLEKQHGPERGRALFDELLWINDTTAPTTVPAPAAEHKPQA
# chain 2: SNLWSTRPERVQEGSTVLINGPQFGWYNPAYTYGIGLHGAGFDVVGNTPFAYPIVLFGTNSEIAWGATAGPQDVVDIYQEKLNPSRADQYWFNNAWRTMEQRKERIQVRGQADREMTIWRTVHGPVMQFDYDQGAAYSKKRSWDGYEVQSLLAWLNVAKARNWTEFLDQASKMAISINWYYADKHGNIGYVSPAFLPQRPADQDIRVPAKGDGSMEWLGIKSFDAIPKAYNPPQGYLVNWNNKPAPDKTNTDTYYWTYGDRMNELVSQYQQKDLFSVQEIWEFNQKASYSDVNWRYFRPHLEKLAQQLPADDSSKAALTMLLAWDGMEQDQGGQNAGPARVLFKTWLEEMYKQVLMPVVPESHRAMYSQTGFATQQGPNPGSINLSMGTKVLLRALVLEAHPDPKRVNVFGERSSQEIMHTALQNAQARLSQEQGAQMARWTMPTSVHRFSDKNFTGTPQTMPGNTFAFTGYQNRGTENNRVVFDAKGVEFCDAMPPGQSGFTDRNGVRSPHYEDQLKLYENFECKTMDVTHADIRRNAQSSTMLLIQPQP
# notes: alpha 202 aa, beta 551 aa; likely recombinant, E. coli host
# B2: Alcaligenes faecalis Penicillin G acylase mutant B:L56K (Alcaligenes faecalis; L321K) (protein)
# chain 1: B1 chain 1
# chain 2: B1 chain 2 with L56K
# notes: alpha 202 aa, beta 551 aa; recombinant, E. coli host
# B3: Alcaligenes faecalis Penicillin G acylase mutant A:M143V (Alcaligenes faecalis; M169V) (protein)
# chain 1: B1 chain 1 with M143V
# chain 2: B1 chain 2
# notes: as for B2
# How the values were obtained:
# Format in all cases: biochemical, Alcaligenes faecalis
# [1] = substrate: NC(=O)[C@H](N)c1ccccc1; experiment: Deacylation kinetics and phenylacetic acid product inhibition, wild type PenG acylase; conditions: other: wild type; 20 mM NaH2PO4, pH 7.0, 37° C.; pH 7.0; 37.0 °C
# Experimental: (§1) In order to determine enzymatic activity the acylases were incubated with substrate at room temperature in buffered solution. In case β-lactamase impurity was expected to be present in the enzyme preparations, 1.0 mM -lactamase inhibitor 6-bromo-penicillanic acid was added to the assay. The reactions were stopped by adding an excess PMSF. For some mutants which were less sensitive to PMSF inhibition, the reactions were stopped by adding 0.5 M HCl or 0.5 M acetic acid until the pH was between 3 and 4. When reactions were subsequently analysed by HPLC, the reactions were stopped by dilution with the correponding elution solvent (see table 1). In addition substrates were incubated under assay conditions in absence of enzyme. If necessary enzyme assays were corrected for non-enzymatic hydrolysis
# (§2) The composition of the reaction mixtures was determined by high-performanceliquid chromatography (HPLC)(table 1). Concentrations were determined by using standards of known concentration.
# (§3) In a continuous assay Penicillin G acylase was assayed spectro-fotometrically with the chromogenic substrate NIPAB [6-nitro-3-phenylacetamido-benzoic acid]. The liberation of 3-amino-6-nitrobenzoic acid was monitored by measuring the extinction at 405 nm in a Kontron 610 kinetic spectrofotometer. […] Initial rate measurements were performed with varying concentration of NIPAB.
# (§4) The kinetics of enzymatic hydrolysis of PenG, PenV, CefG were also studied by alkaline titration (0, OlM KOH), using a Radiometer pH-stat. All experiments were carried out in a buffer free medium.
# (§5) Initial rate measurements were performed with excess substrate over the enzyme. Catalytic parameters were derived from least-squares fitting of the measured initial rates plotted for various substrate concentrations according to the Michaelis-Menten equation.
# (§6) The complete conversion of NIPAB was followed as a funtion of time at 20, 50 and 100 μM NIPAB by following the increase in absorbtion at 405 nm. Products of this conversion are phenylacetic acid and 3-amino-6-nitrobenzoic acid. […] The progress curves of the deacylation of NIPAB could be fitted very well when product inhibition by phenylacetic acid was taken into account. The dissociation constants (usually referred to as inhibition constant Ki) for phenylacetic acid which could be derived from the progress curves is shown in table 11. For these mutants the yield of the conversion in a fixed time span is higher than for wild type. Alternatively, in order to obtain a certain yield a shorter conversion time is needed for the mutants.
# [2] = substrate: CC1(C)S[C@@H]2[C@H](NC(=O)[C@H](N)c3ccccc3)C(=O)N2[C@H]1C(=O)O; experiment: as above; conditions: other: wild type; 20 mM NaH2PO4, pH 7.0, 37° C.; pH 7.0; 37.0 °C
# Experimental: as §1, §2, §3, §4, §5, §6
# [3] = substrate: CC1(C)S[C@@H]2[C@H](NC(=O)[C@H](N)c3ccc(O)cc3)C(=O)N2[C@H]1C(=O)O; experiment: as above; conditions: other: wild type; 20 mM NaH2PO4, pH 7.0, 37° C.; pH 7.0; 37.0 °C
# Experimental: as §1, §2, §3, §4, §5, §6
# [4] = substrate: CC1=C(C(=O)O)N2C(=O)[C@@H](NC(=O)Cc3ccccc3)[C@H]2SC1; experiment: as above; conditions: other: wild type; 20 mM NaH2PO4, pH 7.5, 37° C.; pH 7.5; 37.0 °C
# Experimental: as §1, §2, §3, §4, §5, §6
# [5] = substrate: CC1(C)S[C@@H]2[C@H](NC(=O)COc3ccccc3)C(=O)N2[C@H]1C(=O)O; experiment: as above; conditions: other: wild type; 40 mM NaH2PO4, pH 7.5, 37° C.; pH 7.5; 37.0 °C
# Experimental: as §1, §2, §3, §4, §5, §6
# [6] = substrate: O=C(Cc1ccccc1)Nc1ccc([N+](=O)[O-])c(C(=O)O)c1; experiment: as above; conditions: other: wild type; 0.1M NaH2PO4, pH 7.5, 25° C.; pH 7.5; 25.0 °C
# Experimental: as §1, §2, §3, §4, §5, §6
# [7] = substrate: CC1(C)S[C@@H]2[C@H](NC(=O)Cc3ccccc3)C(=O)N2[C@H]1C(=O)O; experiment: as above; conditions: other: wild type; 40 mM NaH2PO4, pH 7.5, 37° C.; pH 7.5; 37.0 °C
# Experimental: as §1, §2, §3, §4, §5, §6
# [8] = substrate: NC(=O)[C@H](N)c1ccccc1; experiment: Deacylation kinetics and phenylacetic acid product inhibition, mutant B:L56K; conditions: other: B:L56K; 20 mM NaH2PO4, pH 7.0, 37° C.; pH 7.0; 37.0 °C
# Experimental: as §1, §2
# as §3, with “NIPAB. […]” for “NIPAB.”
# as §5, §6
# [9] = substrate: CC1(C)S[C@@H]2[C@H](NC(=O)[C@H](N)c3ccccc3)C(=O)N2[C@H]1C(=O)O; experiment: as above; conditions: other: B:L56K; 20 mM NaH2PO4, pH 7.0, 37° C.; pH 7.0; 37.0 °C
# Experimental: as §1, §2
# as §3, with “NIPAB. […]” for “NIPAB.”
# as §5, §6
# [10] = substrate: CC1=C(C(=O)O)N2C(=O)[C@@H](NC(=O)Cc3ccccc3)[C@H]2SC1; experiment: as above; conditions: other: B:L56K; 20 mM NaH2PO4, pH 7.5, 37° C.; pH 7.5; 37.0 °C
# Experimental: as §1, §2
# as §3, with “NIPAB. […]” for “NIPAB.”
# as §5, §6
# [11] = substrate: CC1(C)S[C@@H]2[C@H](NC(=O)COc3ccccc3)C(=O)N2[C@H]1C(=O)O; experiment: as above; conditions: other: B:L56K; 40 mM NaH2PO4, pH 7.5, 37° C.; pH 7.5; 37.0 °C
# Experimental: as §1, §2
# as §3, with “NIPAB. […]” for “NIPAB.”
# as §5, §6
# [12] = substrate: O=C(Cc1ccccc1)Nc1ccc([N+](=O)[O-])c(C(=O)O)c1; experiment: as above; conditions: other: B:L56K; 0.1M NaH2PO4, pH 7.5, 25° C.; pH 7.5; 25.0 °C
# Experimental: as §1, §2
# as §3, with “NIPAB. […]” for “NIPAB.”
# as §5, §6
# [13] = substrate: CC1(C)S[C@@H]2[C@H](NC(=O)Cc3ccccc3)C(=O)N2[C@H]1C(=O)O; experiment: as above; conditions: other: B:L56K; 40 mM NaH2PO4, pH 7.5, 37° C.; pH 7.5; 37.0 °C
# Experimental: as §1, §2
# as §3, with “NIPAB. […]” for “NIPAB.”
# as §5, §6
# [14] = substrate: NC(=O)[C@H](N)c1ccccc1; experiment: Deacylation kinetics and phenylacetic acid product inhibition, mutant A:M143V; conditions: other: A:M143V; 20 mM NaH2PO4, pH 7.0, 37° C.; pH 7.0; 37.0 °C
# Experimental: as §1, §2
# as §3, with “NIPAB. […]” for “NIPAB.”
# as §5, §6
# [15] = substrate: CC1(C)S[C@@H]2[C@H](NC(=O)[C@H](N)c3ccccc3)C(=O)N2[C@H]1C(=O)O; experiment: as above; conditions: other: A:M143V; 20 mM NaH2PO4, pH 7.0, 37° C.; pH 7.0; 37.0 °C
# Experimental: as §1, §2
# as §3, with “NIPAB. […]” for “NIPAB.”
# as §5, §6
# [16] = substrate: CC1(C)S[C@@H]2[C@H](NC(=O)[C@H](N)c3ccc(O)cc3)C(=O)N2[C@H]1C(=O)O; experiment: as above; conditions: other: A:M143V; 20 mM NaH2PO4, pH 7.0, 37° C.; pH 7.0; 37.0 °C
# Experimental: as §1, §2
# as §3, with “NIPAB. […]” for “NIPAB.”
# as §5, §6
# [17] = substrate: CC1=C(C(=O)O)N2C(=O)[C@@H](NC(=O)Cc3ccccc3)[C@H]2SC1; experiment: as above; conditions: other: A:M143V; 20 mM NaH2PO4, pH 7.5, 37° C.; pH 7.5; 37.0 °C
# Experimental: as §1, §2
# as §3, with “NIPAB. […]” for “NIPAB.”
# as §5, §6
# [18] = substrate: CC1(C)S[C@@H]2[C@H](NC(=O)COc3ccccc3)C(=O)N2[C@H]1C(=O)O; experiment: as above; conditions: other: A:M143V; 40 mM NaH2PO4, pH 7.5, 37° C.; pH 7.5; 37.0 °C
# Experimental: as §1, §2
# as §3, with “NIPAB. […]” for “NIPAB.”
# as §5, §6
# [19] = substrate: O=C(Cc1ccccc1)Nc1ccc([N+](=O)[O-])c(C(=O)O)c1; experiment: as above; conditions: other: A:M143V; 0.1M NaH2PO4, pH 7.5, 25° C.; pH 7.5; 25.0 °C
# Experimental: as §1, §2
# as §3, with “NIPAB. […]” for “NIPAB.”
# as §5, §6
# [20] = substrate: CC1(C)S[C@@H]2[C@H](NC(=O)Cc3ccccc3)C(=O)N2[C@H]1C(=O)O; experiment: as above; conditions: other: A:M143V; 40 mM NaH2PO4, pH 7.5, 37° C.; pH 7.5; 37.0 °C
# Experimental: as §1, §2
# as §3, with “NIPAB. […]” for “NIPAB.”
# as §5, §6
protein,measurement,setting,value
B1,Km,[1],8600 µM
same,Vmax,[1],27.5 U/mg
same,Km,[2],700 µM
same,Vmax,[2],23.5 U/mg
same,Km,[3],14000 µM
same,Vmax,[3],.9 U/mg
same,Km,[4],1 µM
same,Vmax,[4],12.5 U/mg
same,Km,[5],18 µM
same,Vmax,[5],4.0 U/mg
same,Km,[6],4 µM
same,Vmax,[6],37.0 U/mg
same,Km,[7],2 µM
same,Vmax,[7],45.5 U/mg
B2,Km,[8],49000 µM
same,Vmax,[8],18.2 U/mg
same,Km,[9],1700 µM
same,Vmax,[9],20.9 U/mg
same,Km,[10],10 µM
same,Vmax,[10],25.5 U/mg
same,Km,[11],35 µM
same,Vmax,[11],15.5 U/mg
same,Km,[12],28 µM
same,Vmax,[12],47.3 U/mg
same,Km,[13],1 µM
same,Vmax,[13],36.4 U/mg
B3,Km,[14],35000 µM
same,Vmax,[14],22.2 U/mg
same,Km,[15],1500 µM
same,Vmax,[15],23.0 U/mg
same,Km,[16],21000 µM
same,Vmax,[16],.2 U/mg
same,Km,[17],7 µM
same,Vmax,[17],56.4 U/mg
same,Km,[18],31 µM
same,Vmax,[18],10.3 U/mg
same,Km,[19],17 µM
same,Vmax,[19],35.7 U/mg
same,Km,[20],6 µM
same,Vmax,[20],40.5 U/mg
